Laboratory results published in patent US12312397B2, “Anti-O2 antibodies and uses thereof” (priority 2016, dated 2025).

Key:
[1] = system: K. pneumoniae 8570ΔcpsBLux (O2); experiment: Opsonophagocytic killing (OPK) assay, O2 capsule mutant; assay type: cell-based, Klebsiella pneumoniae; design: key to D Capsule OPK O2: +++: Strongly positive activity; +: Positive activity; +/−: Somewhat positive depending upon the test conditions; settings: capsule mutant strain 8570ΔcpsB lux (O2)
Method in brief: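 Luminescent capsule-deficient K. pneumoniae strains were mixed with DMF-differentiated HL-60 cells, 1:10 baby rabbit serum and anti-O2 LPS mAbs (2 ng–2.5 μg/mL), then shaken for 2 h at 37 °C. Killing % came from luminescence (RLU) against no-antibody and negative-control mAb wells, with >40% scored as positive.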

[2] = system: O1 LPS activation of NF-κB in RAW264.7-lux cells; experiment: LPS neutralization assay (NF-κB luciferase, RAW264.7-lux), O1 LPS; assay type: cell-based, murine; settings: secondary screening
Method in brief: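 Serially diluted mAbs (human IgG1) pre-mixed 1:1 with LPS at 4 °C for 1 hr, then diluted 1:10 onto RAW264.7-lux cells carrying an NF-κB-driven firefly luciferase; 2.5 h at 37 °C. Luminescence read; % inhibition relative to no-antibody and negative-control mAb wells.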

[3] = system: O1 LPS; experiment: ELISA binding to O1 LPS; design: species or system Klebsiella pneumoniae; settings: secondary screening
Method in brief: (§1)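 Serial dilutions of monoclonal antibodies bound to LPS-coated plates for 1 h at room temperature, detected with alkaline phosphatase-conjugated anti-human IgG (1 h) and pNPP substrate (30 min). Absorbance read at 405 nm; EC50 values derived from binding curves.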

[4] = system: O2 LPS; experiment: ELISA binding to O2 LPS; design: species or system Klebsiella pneumoniae; settings: secondary screening, ELISA
Method in brief: as §1

[5] = biological target: O2 LPS; experiment: Octet binding assay, O2 LPS; design: species or system Klebsiella pneumoniae; settings: average; calculated from on-rate and off-rate of Octet sensorgram; read-out: affinity constant (KD) to O2 LPS
Experimental: The interaction of anti-O2 LPS mAbs with O1 and O2 LPS was further tested in solution phase by Octet platform. This platform provides a powerful tool to measure the rate of biomolecular complex formation and complex stability in a more biologically meaningful setting. Briefly, Protein A coated sensors were coated with 0.2 μg/mL anti-O2 LPS mAbs for 10 minutes before being dipped into solution containing 2 μg/mL O1 or O2 LPS in Kinetics buffer (ForteBio, dilute 10× to 1× with PBS). Changes in the number of molecules bound to the biosensor caused a shift in the interference pattern that was recorded in real time. […] The affinity constant (KD) of Class III mAbs to O2 LPS was calculated based on the on-rate and off-rate from Octet sensorgram.

B1: KPN179: Class III anti-O2 antigen human mAb; VH SEQ ID NO: 53, VL SEQ ID NO: 54 (antibody, V domains shown)
VH: EVQVVESGGGLVKPGGSLRLSCAASGFTFNNAWMNWVRQAPGKGLEWVGRIKRKADGETTDYPASVKGRFTVSRDDSKNTIYLQMNSLKTEDTAIYYCTTRIVTTNDYWGQGTLVTVSS
VL: QSALTQPPSVSGSPGQSVTISCTGTSSDVGYYDYVSWYQQHHPGKAPKHMIYDVNKRPSGVPDRFSGSKSGNTASLTISGLQAEDEADYYCCSYAGGDTFVFGTGTKVTVL
modifications: Description of Artificial Sequence: SyntheticKPN179 VH polypeptide; Description of Artificial Sequence: SyntheticKPN179 VL polypeptide
D Capsule OPK O2 [1]: +++ | neutralization of LPS-O1 [2]: did not show LPS-neutralizing activity | binding to LPS-O1 [3]: bind | binding to LPS-O2 [4]: bind | Kd [5]: 7.98 nM
